{"source": "paper PMC6383945", "about": "“Elk1 affects katanin and spastin proteins via differential transcriptional and post-transcriptional regulations”", "binders": {"B1": {"name": "KATNA1 Promoter_WT (-428/-419) (dsDNA)", "DNA 1": "AGGGTGGAGATTGAGACTGGAGGAAGCCCTGTGCAGTACATAT", "DNA 2": "ATATGTACTGCACAGGGCTTCCTCCAGTCTCAATCTCCACCCT"}, "B2": {"name": "KATNA1 UTR1_Mut (dsDNA)", "DNA 1": "CGAGGTCGTCCCCGGTGTTAAGGATGACCCTGGCGGGTTTGT", "DNA 2": "ACAAACCCGCCAGGGTCATCCTTAACACCGGGGACGACCTCG"}, "B3": {"name": "KATNA1 UTR2_Mut (dsDNA)", "DNA 1": "GACTGGGTCAGGCCCTCTCCTTCTATTGCCGGGATCTCCACTC", "DNA 2": "GAGTGGAGATCCCGGCAATAGAAGGAGAGGGCCTGACCCAGTC"}, "B4": {"name": "KATNA1 Promoter_Mut (dsDNA)", "DNA 1": "AGGGTGGAGATTGAGACCAAGAAGGACCCTGTGCAGTACATAT", "DNA 2": "ATATGTACTGCACAGGGTCCTTCTTGGTCTCAATCTCCACCCT"}, "B5": {"name": "KATNA1 UTR1_WT (+113/+122) (dsDNA)", "DNA 1": "CGAGGTCGTCCCCGGCACCGGAAGTGACCCTGGCGGGTTTGT", "DNA 2": "ACAAACCCGCCAGGGTCACTTCCGGTGCCGGGGACGACCTCG"}, "B6": {"name": "KATNA1 UTR2_WT (+253/+262) (dsDNA)", "DNA 1": "GACTGGGTCAGGCCCTCCTTCCTCGCTGCCGGGATCTCCACTC", "DNA 2": "GAGTGGAGATCCCGGCAGCGAGGAAGGAGGGCCTGACCCAGTC"}}}
{"molecular_target": "T1, Elk1-db (ETS DNA-binding domain) (Homo sapiens, UniProt P19419 1-96)", "T1 sequence": "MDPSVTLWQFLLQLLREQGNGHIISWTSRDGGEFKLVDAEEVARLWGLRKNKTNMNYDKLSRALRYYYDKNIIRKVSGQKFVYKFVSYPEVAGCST", "test": "EMSA; 10 mM Tris pH 7.5, 50 mM KCl, 1 mM DTT, 1 ug poly(dI-dC), 5% glycerol, 1 mM EDTA, 0.3% BSA, protease inhibitors; 20 fmol probe, 300 ng Elk1-db; 20 min room temperature; 6% native PAGE in 0.5X TBE at 4 C", "conditions": "protein: recombinant; tags: 6xHis; label: 3' biotin on both strands; blunt before labelling"}
{"binder": "B1", "binding result": "no binding"}
{"binder": "B2", "binding result": "no binding"}
{"binder": "B3", "binding result": "no binding"}
{"binder": "B4", "binding result": "no binding"}
{"binder": "B5", "binding result": "binds"}
{"binder": "B6", "binding result": "no binding"}
